Test [1] addresses T1, mouse integrin α6β4 on cells (CHO-S-murine ITGA6B4-#12; 4T1) (mouse, UniProt A2A863 29-1818; Q61739 24-1091).
T1 construct: whole, on cells; also called mouse ITGB4; CHO-S-mouse ITGB4
The test is described as follows: flow cytometry on 4T1 and CHO-S-murine ITGA6B4-#12 cells.

Test [2] deals with T2, human integrin α6β1 on CHO-S cells (CHO-S-human ITGA6B1-#24) (human, UniProt P05556 21-798; P23229 24-1130).
T2 construct: whole, on cells; also called human ITGB1
The test is described as follows: flow cytometry on CHO-S-human ITGA6B1-#24 cells.

T2 sequence (P05556 21-798, chain 1 of 2): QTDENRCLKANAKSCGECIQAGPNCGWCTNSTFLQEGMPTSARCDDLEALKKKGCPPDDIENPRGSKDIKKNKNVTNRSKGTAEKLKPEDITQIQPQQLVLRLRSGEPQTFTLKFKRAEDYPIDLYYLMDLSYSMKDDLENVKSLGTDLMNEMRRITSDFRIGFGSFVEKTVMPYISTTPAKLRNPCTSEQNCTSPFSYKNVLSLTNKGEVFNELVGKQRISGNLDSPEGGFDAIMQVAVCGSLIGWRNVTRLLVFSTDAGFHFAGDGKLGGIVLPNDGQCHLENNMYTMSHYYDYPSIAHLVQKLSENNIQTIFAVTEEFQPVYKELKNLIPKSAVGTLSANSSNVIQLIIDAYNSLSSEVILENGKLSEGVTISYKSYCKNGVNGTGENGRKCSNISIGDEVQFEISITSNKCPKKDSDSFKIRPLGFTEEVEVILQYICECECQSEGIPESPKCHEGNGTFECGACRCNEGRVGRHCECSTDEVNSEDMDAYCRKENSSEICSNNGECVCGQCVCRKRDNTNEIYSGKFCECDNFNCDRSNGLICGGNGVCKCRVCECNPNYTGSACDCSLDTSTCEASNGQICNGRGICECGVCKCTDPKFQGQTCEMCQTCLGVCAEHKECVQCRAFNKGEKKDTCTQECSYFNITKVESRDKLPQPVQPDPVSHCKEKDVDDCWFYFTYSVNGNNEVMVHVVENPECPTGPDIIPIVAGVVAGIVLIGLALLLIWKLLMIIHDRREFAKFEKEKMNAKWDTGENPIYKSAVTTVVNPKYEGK
T2 sequence (P23229 24-1130, chain 2 of 2): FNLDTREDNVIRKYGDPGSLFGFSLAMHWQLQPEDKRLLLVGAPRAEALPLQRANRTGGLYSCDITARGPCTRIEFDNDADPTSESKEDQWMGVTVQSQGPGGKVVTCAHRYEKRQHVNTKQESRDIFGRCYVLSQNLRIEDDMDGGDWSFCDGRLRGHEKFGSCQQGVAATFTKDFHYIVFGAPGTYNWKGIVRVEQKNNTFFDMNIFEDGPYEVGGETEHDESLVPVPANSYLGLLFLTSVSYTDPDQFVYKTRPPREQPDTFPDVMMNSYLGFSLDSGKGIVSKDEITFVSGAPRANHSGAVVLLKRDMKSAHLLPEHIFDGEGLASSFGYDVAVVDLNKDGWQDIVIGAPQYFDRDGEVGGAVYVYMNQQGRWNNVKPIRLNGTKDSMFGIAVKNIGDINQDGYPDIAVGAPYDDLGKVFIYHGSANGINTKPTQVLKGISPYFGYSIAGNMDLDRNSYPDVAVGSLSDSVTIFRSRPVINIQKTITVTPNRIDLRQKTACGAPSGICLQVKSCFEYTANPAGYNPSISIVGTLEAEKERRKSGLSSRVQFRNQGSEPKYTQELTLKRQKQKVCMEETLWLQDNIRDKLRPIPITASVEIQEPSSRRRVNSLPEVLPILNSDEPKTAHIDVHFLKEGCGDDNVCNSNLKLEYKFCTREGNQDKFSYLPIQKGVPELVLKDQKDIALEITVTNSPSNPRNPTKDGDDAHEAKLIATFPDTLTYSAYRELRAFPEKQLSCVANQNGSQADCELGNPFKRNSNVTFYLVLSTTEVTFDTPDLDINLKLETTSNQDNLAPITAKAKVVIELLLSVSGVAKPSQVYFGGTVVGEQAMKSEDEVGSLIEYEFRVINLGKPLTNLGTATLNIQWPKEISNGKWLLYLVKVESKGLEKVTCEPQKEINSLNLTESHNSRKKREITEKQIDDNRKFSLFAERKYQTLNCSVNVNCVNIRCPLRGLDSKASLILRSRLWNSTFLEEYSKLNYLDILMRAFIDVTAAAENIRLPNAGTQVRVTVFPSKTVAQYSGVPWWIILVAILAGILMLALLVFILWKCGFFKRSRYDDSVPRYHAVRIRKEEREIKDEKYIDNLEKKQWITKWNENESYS
T1 sequence (A2A863 29-1818, chain 1 of 2): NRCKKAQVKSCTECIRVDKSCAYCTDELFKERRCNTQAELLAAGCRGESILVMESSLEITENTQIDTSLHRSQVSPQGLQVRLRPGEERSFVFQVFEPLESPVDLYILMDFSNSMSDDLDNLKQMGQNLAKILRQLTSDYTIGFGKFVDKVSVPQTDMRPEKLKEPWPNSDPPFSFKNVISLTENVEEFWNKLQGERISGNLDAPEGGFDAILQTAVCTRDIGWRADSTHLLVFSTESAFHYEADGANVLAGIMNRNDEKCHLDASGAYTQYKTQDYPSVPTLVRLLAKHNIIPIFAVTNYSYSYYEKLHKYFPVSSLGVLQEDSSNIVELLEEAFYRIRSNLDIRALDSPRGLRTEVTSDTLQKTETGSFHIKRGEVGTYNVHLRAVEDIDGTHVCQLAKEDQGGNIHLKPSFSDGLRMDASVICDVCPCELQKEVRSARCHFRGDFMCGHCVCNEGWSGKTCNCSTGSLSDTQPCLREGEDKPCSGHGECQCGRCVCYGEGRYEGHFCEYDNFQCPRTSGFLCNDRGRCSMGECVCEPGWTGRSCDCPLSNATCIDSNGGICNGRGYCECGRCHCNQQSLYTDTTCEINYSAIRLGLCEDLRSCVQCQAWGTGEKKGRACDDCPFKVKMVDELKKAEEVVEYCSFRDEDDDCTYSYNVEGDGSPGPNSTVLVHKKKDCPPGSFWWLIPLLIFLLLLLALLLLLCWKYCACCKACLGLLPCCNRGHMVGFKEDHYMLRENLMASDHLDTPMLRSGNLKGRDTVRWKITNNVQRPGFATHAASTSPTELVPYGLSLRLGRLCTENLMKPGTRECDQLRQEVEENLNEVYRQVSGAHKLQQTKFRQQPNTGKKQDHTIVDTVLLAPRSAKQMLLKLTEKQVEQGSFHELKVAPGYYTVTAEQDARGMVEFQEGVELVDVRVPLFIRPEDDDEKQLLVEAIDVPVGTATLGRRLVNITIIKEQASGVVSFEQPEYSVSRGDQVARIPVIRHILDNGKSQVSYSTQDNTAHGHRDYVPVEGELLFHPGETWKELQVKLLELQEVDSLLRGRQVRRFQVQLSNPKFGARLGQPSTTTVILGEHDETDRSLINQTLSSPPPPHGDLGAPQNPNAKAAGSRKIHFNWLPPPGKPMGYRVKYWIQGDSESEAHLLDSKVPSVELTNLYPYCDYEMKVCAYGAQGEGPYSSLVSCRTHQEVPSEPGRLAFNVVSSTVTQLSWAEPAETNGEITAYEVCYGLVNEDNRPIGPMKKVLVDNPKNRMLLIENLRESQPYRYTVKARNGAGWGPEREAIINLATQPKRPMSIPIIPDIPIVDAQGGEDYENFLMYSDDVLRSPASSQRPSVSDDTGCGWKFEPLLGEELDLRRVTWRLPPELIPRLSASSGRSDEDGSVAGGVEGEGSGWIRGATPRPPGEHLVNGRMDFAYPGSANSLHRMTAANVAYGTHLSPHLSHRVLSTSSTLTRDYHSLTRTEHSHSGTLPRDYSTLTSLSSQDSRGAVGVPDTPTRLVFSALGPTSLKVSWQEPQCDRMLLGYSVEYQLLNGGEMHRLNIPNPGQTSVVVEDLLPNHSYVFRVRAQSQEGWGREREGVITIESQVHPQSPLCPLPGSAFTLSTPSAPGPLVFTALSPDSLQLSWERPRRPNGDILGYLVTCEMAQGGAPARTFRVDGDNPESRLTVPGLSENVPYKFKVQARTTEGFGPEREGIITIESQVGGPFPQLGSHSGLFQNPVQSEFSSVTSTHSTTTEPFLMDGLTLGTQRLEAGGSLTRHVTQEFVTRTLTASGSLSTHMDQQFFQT
T1 sequence (Q61739 24-1091, chain 2 of 2): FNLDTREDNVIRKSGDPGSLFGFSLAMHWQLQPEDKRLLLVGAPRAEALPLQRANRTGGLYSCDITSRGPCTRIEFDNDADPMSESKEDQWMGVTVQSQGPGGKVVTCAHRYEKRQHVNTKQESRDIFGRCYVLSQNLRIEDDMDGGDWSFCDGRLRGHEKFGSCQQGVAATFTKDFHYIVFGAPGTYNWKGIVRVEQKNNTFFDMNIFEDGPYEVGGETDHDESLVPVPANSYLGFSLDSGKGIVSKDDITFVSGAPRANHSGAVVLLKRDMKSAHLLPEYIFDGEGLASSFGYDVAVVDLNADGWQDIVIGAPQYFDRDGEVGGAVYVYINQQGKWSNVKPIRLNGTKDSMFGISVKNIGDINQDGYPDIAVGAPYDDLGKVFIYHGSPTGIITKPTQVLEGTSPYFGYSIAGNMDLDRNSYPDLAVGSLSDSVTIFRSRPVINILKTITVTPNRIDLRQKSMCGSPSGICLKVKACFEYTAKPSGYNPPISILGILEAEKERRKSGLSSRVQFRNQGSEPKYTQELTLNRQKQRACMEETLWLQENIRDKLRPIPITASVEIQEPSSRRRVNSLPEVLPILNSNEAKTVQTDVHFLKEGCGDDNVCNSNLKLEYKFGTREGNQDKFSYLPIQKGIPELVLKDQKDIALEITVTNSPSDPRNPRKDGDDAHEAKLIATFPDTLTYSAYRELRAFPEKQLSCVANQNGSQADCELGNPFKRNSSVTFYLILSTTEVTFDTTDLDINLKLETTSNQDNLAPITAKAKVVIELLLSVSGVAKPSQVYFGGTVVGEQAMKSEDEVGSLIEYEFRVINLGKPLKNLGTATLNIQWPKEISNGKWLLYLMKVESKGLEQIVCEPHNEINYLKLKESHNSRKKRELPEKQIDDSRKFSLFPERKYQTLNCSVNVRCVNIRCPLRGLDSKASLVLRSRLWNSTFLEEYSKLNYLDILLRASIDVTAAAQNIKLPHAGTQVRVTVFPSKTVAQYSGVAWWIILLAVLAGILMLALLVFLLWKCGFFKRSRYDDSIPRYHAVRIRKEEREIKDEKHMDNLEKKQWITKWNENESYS

B1: anti-ITGB4 antibody 008 (parental clone) (antibody, V domains shown)
VH: QVQLKQSGPSLVQPSQSLSITCTVSGFSLTSYGVHWFRQSPGKGLEWLGVIWRGGNTDYNAAFMSRLSITKDNSKSQVFFKMNSLQPDDTAIYYCVKNYRFGGSAYWGQGTLVTVSA
VL: DIQMTQTTSSLSASLGDRVTISCRASQDISNHLNWYQQKPDGTVKLLIYYTSTLHSGVPSRFSGSGSGTDYSLTISNLEPEDIATYYCQQDLNLPWTFGGGTKLEIK
notes: In the assays it was captured on anti-human IgG Fc sensors and detected with anti-human IgG, so the tested form carries a human Fc; also called 008 clone
Regarding B1, the binding result in test [1] and in test [2] was “no binding” in each case.

The values above are taken from patent EP4688000A1 (dated 2026).
